Assay results taken from patent US20070077617.
Residue numbers refer to the chain shown, from its start. Numbers in names are those of the source.

B1: OmpT protease variant OmpT D97M (protein)
chain: STETLSFTPDNINADISLGTLSGKTKERVYLAEEGGRKVSQLDWKFNNAAIIKGAINWDLMPQISIGAAGWTTLGSRGGNMVDQDWMDSSNPGTWTMESRHPDTQLNYANEFDLNIKGWLLNEPNYRLGLMAGYQESRYSFTARGGSYIYSSEEGFRDDIGSFPNGERAIGYKQRFKMPYIGLTGSYRYEDFELGGTFKYSGWVESSDNDEHYDPGKRITYRSKVKDQNYYSVAVNAGYYVTPNAKVYVEGAWNRVTNKKGNTSLYDHNNNTSDYSKNGAGIENYNFITTAGLKYTF
B2: OmpT protease variant OmpT D97H (protein)
chain: B1 chain with M97H

Columns and labels:
[1] = molecular target: motilin fusion protein PMT6D
Sequence of motilin fusion protein PMT6D (chain, as listed by the source): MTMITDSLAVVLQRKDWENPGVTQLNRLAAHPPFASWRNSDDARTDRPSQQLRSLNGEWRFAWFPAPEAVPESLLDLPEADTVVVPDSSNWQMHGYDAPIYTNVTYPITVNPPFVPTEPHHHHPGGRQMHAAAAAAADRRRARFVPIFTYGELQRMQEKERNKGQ

[2] = molecular target: motilin fusion protein PMT7D
Sequence of motilin fusion protein PMT7D (chain, as listed by the source): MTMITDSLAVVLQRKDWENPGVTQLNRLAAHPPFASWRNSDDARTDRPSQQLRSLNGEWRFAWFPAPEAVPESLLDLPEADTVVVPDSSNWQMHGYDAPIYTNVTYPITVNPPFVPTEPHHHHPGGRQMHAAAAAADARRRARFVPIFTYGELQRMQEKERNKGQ

fusion protein PRMT = settings: scale: relative
Sequence of fusion protein PRMT (chain, as listed by the source): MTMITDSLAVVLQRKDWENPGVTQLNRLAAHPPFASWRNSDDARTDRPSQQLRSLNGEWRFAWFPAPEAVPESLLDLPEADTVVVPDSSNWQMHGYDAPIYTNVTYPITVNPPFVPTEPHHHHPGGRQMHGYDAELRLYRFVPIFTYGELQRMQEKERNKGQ

[3] = molecular target: human calcitonin precursor fusion protein PCT
Sequence of human calcitonin precursor fusion protein PCT (chain, as listed by the source): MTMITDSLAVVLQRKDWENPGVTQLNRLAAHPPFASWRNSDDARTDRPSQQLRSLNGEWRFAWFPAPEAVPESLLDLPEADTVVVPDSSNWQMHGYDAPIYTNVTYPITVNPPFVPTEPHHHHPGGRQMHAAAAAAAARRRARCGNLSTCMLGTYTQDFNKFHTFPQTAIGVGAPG

Sequence of fusion protein PMT (chain, as listed by the source): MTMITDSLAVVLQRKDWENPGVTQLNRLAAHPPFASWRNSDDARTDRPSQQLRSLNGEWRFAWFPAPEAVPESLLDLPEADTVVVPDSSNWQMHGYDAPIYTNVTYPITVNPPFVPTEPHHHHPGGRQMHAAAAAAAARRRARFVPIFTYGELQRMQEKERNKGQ
Sequence of fusion protein PRH (chain, as listed by the source): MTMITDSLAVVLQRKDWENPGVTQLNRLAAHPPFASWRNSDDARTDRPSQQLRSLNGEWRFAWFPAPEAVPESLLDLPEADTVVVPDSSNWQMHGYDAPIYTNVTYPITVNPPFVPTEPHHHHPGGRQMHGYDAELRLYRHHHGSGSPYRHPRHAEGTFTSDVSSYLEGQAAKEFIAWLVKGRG
Sequence of fusion protein PRG (chain, as listed by the source): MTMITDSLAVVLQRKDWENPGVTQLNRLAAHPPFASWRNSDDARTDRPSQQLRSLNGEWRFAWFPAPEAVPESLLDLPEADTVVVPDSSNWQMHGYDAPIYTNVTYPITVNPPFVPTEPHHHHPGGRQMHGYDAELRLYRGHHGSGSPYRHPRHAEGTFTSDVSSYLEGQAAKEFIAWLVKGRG
Sequence of fusion protein PRQ (chain, as listed by the source): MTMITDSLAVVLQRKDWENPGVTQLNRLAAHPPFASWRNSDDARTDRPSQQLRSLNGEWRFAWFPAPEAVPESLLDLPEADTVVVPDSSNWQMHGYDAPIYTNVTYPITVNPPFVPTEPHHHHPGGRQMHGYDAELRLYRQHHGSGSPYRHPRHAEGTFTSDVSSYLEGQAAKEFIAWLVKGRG
Sequence of fusion protein PRY (chain, as listed by the source): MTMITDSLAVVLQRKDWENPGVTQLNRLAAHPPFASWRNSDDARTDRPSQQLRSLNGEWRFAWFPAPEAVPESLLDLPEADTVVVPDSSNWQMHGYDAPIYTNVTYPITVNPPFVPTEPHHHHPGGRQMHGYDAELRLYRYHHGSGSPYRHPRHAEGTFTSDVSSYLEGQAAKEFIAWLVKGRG
Sequence of fusion protein PRK (chain, as listed by the source): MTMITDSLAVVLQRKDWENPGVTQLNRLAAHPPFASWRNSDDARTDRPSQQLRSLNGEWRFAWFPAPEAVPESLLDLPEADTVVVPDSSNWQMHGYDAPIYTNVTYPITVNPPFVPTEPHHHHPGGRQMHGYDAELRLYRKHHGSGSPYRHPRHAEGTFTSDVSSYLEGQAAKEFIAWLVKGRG
Sequence of fusion protein PRW (chain, as listed by the source): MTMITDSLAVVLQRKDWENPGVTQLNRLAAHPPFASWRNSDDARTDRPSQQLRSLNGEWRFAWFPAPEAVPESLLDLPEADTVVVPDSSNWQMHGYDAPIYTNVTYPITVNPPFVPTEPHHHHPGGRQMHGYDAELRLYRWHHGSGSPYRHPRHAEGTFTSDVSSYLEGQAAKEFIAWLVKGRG
Sequence of fusion protein PRA (chain, as listed by the source): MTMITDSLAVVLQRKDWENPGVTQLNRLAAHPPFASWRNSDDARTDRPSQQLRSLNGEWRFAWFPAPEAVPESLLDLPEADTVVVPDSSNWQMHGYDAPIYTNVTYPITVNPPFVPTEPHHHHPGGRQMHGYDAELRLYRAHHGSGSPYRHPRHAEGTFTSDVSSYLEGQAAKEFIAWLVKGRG
Sequence of fusion protein PRI (chain, as listed by the source): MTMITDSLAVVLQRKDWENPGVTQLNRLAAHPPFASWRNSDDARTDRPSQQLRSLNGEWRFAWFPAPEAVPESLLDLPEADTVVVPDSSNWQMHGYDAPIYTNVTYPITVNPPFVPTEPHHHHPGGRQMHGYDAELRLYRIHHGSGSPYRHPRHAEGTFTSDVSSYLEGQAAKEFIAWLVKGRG
Sequence of fusion protein PRC (chain, as listed by the source): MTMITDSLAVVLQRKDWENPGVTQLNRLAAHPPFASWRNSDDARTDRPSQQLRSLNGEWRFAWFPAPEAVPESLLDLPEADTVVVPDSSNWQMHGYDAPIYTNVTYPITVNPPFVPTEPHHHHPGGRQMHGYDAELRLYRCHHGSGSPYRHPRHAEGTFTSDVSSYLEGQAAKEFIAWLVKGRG
Sequence of fusion protein PRD (chain, as listed by the source): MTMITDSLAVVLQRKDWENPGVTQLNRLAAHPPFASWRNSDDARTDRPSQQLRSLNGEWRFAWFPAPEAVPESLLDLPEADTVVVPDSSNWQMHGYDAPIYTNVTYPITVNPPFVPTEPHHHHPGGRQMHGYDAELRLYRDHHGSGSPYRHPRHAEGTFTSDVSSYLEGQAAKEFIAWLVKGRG
Sequence of fusion protein PRN (chain, as listed by the source): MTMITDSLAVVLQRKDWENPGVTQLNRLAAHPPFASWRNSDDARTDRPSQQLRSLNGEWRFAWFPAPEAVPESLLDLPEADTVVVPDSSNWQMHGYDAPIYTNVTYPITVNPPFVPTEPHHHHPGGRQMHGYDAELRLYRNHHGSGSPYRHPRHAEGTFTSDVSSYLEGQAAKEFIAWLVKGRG
Sequence of fusion protein PRE (chain, as listed by the source): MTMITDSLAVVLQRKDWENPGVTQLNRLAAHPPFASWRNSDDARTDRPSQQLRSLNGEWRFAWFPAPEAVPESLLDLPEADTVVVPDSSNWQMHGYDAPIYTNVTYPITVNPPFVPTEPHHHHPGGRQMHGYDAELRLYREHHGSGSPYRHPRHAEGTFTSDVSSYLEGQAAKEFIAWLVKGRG
Sequence of fusion protein PRR (chain, as listed by the source): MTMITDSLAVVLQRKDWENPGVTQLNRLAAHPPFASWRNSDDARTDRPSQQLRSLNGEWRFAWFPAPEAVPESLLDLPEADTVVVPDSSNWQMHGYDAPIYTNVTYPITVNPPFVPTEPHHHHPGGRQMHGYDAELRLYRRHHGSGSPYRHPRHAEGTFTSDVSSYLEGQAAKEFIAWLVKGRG
Sequence of fusion protein PRT (chain, as listed by the source): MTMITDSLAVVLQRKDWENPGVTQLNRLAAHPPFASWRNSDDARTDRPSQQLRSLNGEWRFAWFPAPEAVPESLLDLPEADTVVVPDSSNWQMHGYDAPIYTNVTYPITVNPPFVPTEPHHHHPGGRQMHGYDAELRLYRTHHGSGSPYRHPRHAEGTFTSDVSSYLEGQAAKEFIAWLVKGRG
Sequence of fusion protein PRF (chain, as listed by the source): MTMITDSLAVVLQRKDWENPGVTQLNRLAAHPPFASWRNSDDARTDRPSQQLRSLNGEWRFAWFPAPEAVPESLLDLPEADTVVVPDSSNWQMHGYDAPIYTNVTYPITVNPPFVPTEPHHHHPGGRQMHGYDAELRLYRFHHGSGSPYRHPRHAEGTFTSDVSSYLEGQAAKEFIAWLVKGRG
Sequence of fusion protein PRM (chain, as listed by the source): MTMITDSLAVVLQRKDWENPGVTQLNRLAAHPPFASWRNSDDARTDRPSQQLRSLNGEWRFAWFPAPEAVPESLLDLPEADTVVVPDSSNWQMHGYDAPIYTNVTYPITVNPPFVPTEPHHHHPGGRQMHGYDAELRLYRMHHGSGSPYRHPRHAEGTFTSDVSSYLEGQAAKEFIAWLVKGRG
Sequence of fusion protein PRS (chain, as listed by the source): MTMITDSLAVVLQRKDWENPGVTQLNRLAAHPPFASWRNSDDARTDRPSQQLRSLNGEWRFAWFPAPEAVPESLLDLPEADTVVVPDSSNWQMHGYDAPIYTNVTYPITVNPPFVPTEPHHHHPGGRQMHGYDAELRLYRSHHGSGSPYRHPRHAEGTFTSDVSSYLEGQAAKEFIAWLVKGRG
Sequence of fusion protein PRL (chain, as listed by the source): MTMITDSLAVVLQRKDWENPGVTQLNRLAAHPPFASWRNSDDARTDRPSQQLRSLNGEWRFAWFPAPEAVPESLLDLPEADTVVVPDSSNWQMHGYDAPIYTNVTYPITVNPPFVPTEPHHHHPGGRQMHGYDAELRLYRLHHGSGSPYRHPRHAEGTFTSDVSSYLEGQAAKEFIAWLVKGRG

| Protein | relative cleavage efficiency (fusion protein PRT) [%] | relative cleavage efficiency (fusion protein PRH) | relative cleavage efficiency (fusion protein PRS) [%] | relative cleavage efficiency (fusion protein PRE) | relative cleavage efficiency (fusion protein PRW) | relative cleavage efficiency (fusion protein PRY) [%] | relative cleavage efficiency (fusion protein PRP) | relative cleavage efficiency (fusion protein PRG) | relative cleavage efficiency (fusion protein PRA) [%] | relative cleavage efficiency (fusion protein PRL) | relative cleavage efficiency (fusion protein PRF) [%] | relative cleavage efficiency (fusion protein PRN) [%] | relative cleavage efficiency (fusion protein PRM) [%] | relative cleavage efficiency (fusion protein PRI) [%] | relative cleavage efficiency (fusion protein PRC) [%] | relative cleavage efficiency (fusion protein PRD) | relative cleavage efficiency (fusion protein PRQ) | relative cleavage efficiency (fusion protein PRK) [%] | relative cleavage efficiency (fusion protein PRR) [%] | also measured |
| --- | --- | --- | --- | --- | --- | --- | --- | --- | --- | --- | --- | --- | --- | --- | --- | --- | --- | --- | --- | --- |
| B1 | < 3 | less than 3% | 7.1 | less than 3% | less than 3% | 6.2 | less than 3% | less than 3% | 6 | less than 3% | 7.7 | < 3 | < 3 | < 3 | 6.5 | less than 3% | less than 3% | < 3 | < 3 | amount of motilin released, against PRMT (fusion protein PMT): the amount of motilin released from PMT was 3.5 times higher than from PRMT; by-product AR-motilin (motilin = 100) (fusion protein PMT): By-products were yielded at 2.8 and 33% with PMT; by-product RRAR-motilin (motilin = 100) (fusion protein PMT): By-products were yielded at 2.8 and 33% with PMT; digestion (SDS-PAGE), co-expressed inclusion bodies (fusion protein PMT): reaction of 1440 minutes, i.e. 24 hours, caused virtually complete digestion of the fusion protein PMT; motilin released (fusion protein PMT): Motilin was released at 280, 250 and 370 µg/mL from the motilin fusion proteins PMT, PMT6D and PMT7D, respectively; relative cleavage efficiency: Motilin (Arg^143-Phe^144) (fusion protein PMT; scale: relative): 78; relative cleavage efficiency: RRAR-motilin (Arg^139-Arg^140) (fusion protein PMT; scale: relative): 24; by-product AR-motilin (motilin = 100) [1]: at 3.5 and 16% with PMT6D; by-product RRAR-motilin (motilin = 100) [1]: at 3.5 and 16% with PMT6D; motilin released [1]: Motilin was released at 280, 250 and 370 µg/mL from the motilin fusion proteins PMT, PMT6D and PMT7D, respectively; by-product RRAR-motilin [2]: no peak for RRAR-motilin was detected with PMT7D; motilin released [2]: Motilin was released at 280, 250 and 370 µg/mL from the motilin fusion proteins PMT, PMT6D and PMT7D, respectively; relative cleavage efficiency: Motilin (Arg^140-Phe^141) (fusion protein PRMT): 22 |
| B2 | 3 | less than 3% | 8.7 | less than 3% | less than 3% | < 3 | less than 3% | less than 3% | 8.4 | less than 3% | 4.1 | 3.5 | 4.6 | 3.1 | 11 | less than 3% | less than 3% | 4.5 | 4.6 | cleavage (HPLC, mass analysis) [3]: PCT was cleaved at Arg^139-Arg^140. Arg^141-Ala^142 and Arg^143-Cys^144 by D97H, releasing RRAR-CT, AR-CT and human calcitonin precursor |
